Results: the supplement of paper PMC9732359
± gives the uncertainty stated by the source.

Assay: protein stability index of a GFP-peptide fusion (yeast GPS) (PSI 1-4); higher = more stable; sorted into four equal gates, so the index is relative within each strain
Method in brief: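 Tiled 17-residue peptides from yeast proteins were fused downstream of GFP on a plasmid that also expresses Cherry, and the pooled library was carried in yeast. Mid-log cultures grown in leucine-free medium were sorted into four equal gates by GFP/Cherry fluorescence ratio. Plasmids from each gate were PCR-amplified and Illumina-sequenced, and reads were assigned to strains by barcodes. Each peptide's protein stability index is the sum, over gates, of the gate's read frequency multiplied by its gate number.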

Sequence	protein stability index (doa10∆)	protein stability index (pdr5∆)	protein stability index (san1∆)	protein stability index (ubr1∆)
SAVLLETTLGEMAEKID [PRP8]	1.12 ± 0.13	1.55 ± 0.098	1.21 ± 0.2	1.65 ± 0.11
IRAIRKVISEILTREVQ [RPS1B]	1.92 ± 0.07	1.65 ± 0.05	1.25 ± 0.08	1.67 ± 0.14
LQLELTIEDIAVAITRA [RPO31]	1.92 ± 0.057	2.12 ± 0.044	1.97 ± 0.058	2.07 ± 0.041
VDPFTRKEWFDIKAPST [RPS1A]	2.38 ± 0.072	2.57 ± 0.067	2.55 ± 0.045	2.89 ± 0.06
TIDNIDSENFSFEKLYE [YMR129W/POM152]	3.3 ± 0.085	3.26 ± 0.076	3.33 ± 0.074	3.17 ± 0.047
DINPPLVFILAVVGNNM [RRP42]	1.84 ± 0.083	1.78 ± 0.058	1.96 ± 0.082	1.52 ± 0.046
RFQDPYVAIVVDPLKSL [RRI1]		2.79 ± 0.13	2.26 ± 0.2	2.69 ± 0.13
NNGVSNLWKNIFLSKEN [COR1]	2.98 ± 0.082	2.9 ± 0.059	2.67 ± 0.089	2.4 ± 0.058
LPEPTEGFAADDEPTTP [FAS1]	3 ± 0.095	2.65 ± 0.099	3.35 ± 0.15	2.92 ± 0.065
PSESEHPIRVLMASVIL [YDL116W/NUP84]	1.87 ± 0.076	1.89 ± 0.064	1.75 ± 0.062	1.78 ± 0.08
EQSKEVGDVVGGALDNP [BRN1]	3.29 ± 0.091	3.54 ± 0.078	3.44 ± 0.057	3.38 ± 0.058
TAAANTEKLSNGFSFTK [YOR098C/NUP1]	2.81 ± 0.079	2.48 ± 0.057	2.56 ± 0.065	2.46 ± 0.044
INDNNTRPYILERARDV [YCG1]	3.6 ± 0.23			
EVVKSLYDRPLKPDLNK [NAS6]	3.18 ± 0.11	3.38 ± 0.098	2.85 ± 0.18	3.42 ± 0.1
WTELCQREFKEIMEERN [NNF1]	2.98 ± 0.21	3.41 ± 0.16	3.13 ± 0.072	3.2 ± 0.074
REFLKVDQEMLYEIILA [SKP1]	2.81 ± 0.066	2.85 ± 0.065	2.86 ± 0.096	2.96 ± 0.051
YYKKFLIEPLPTESYLQ [BRR2]	1.85 ± 0.055	2.58 ± 0.066	1.78 ± 0.13	2.48 ± 0.055
NKNNNNRHNLLNDVVSF [SWI1]	2.99 ± 0.061	1.98 ± 0.036	1.99 ± 0.037	1.9 ± 0.034
LNRLPAASLGDMVMATV [RPL23A]	1.6 ± 0.1	1.78 ± 0.072	2.52 ± 0.17	2.11 ± 0.057

Sequence	protein stability index (doa10∆)	protein stability index (pdr5∆)	protein stability index (san1∆)	protein stability index (ubr1∆)
VKLYGREGSSARTIKAT [RPB2]	2.47 ± 0.12	3.36 ± 0.12	3.25 ± 0.088	3.29 ± 0.19
THSQTGTQQSNMYTSTQ [SIR4]	3.03 ± 0.061	3.16 ± 0.046	2.93 ± 0.051	3.08 ± 0.055
HLNHYILLRYHHNDISN [YCG1]	1.23 ± 0.088	1.17 ± 0.068	1.19 ± 0.15	1.33 ± 0.063
SSFYINHASMDVYNREL [BRR2]	3.02 ± 0.12	2.96 ± 0.1	3.04 ± 0.076	3.17 ± 0.09
AVLNVSPVYDVDPRIIN [NUT1]	2.2 ± 0.078	2.29 ± 0.064	1.82 ± 0.091	2.17 ± 0.06
TICIELKTVLHNGRDKI [RGR1]	1.55 ± 0.051	1.62 ± 0.062	1.78 ± 0.085	1.78 ± 0.067
ETDHKTNENGETDDNIE [SRB4]	3.01 ± 0.22	3.57 ± 0.15	3.08 ± 0.083	3.21 ± 0.089
TFVPTNSDKPRDVYVFD [DIS3]	3 ± 0.062	2.93 ± 0.071	3.11 ± 0.064	3 ± 0.059
FFDPKPFDQNLDSNNNN [SWI1]	2.98 ± 0.085	2.83 ± 0.092	3.14 ± 0.048	2.88 ± 0.069
FEPSISRSNFQGKHTKF [LRP1]	3.2 ± 0.1	3.26 ± 0.15	2.97 ± 0.14	3.28 ± 0.094
QLPKQLWRNFCRKLSFS [ITC1]	2.67 ± 0.059	2.66 ± 0.05	2.6 ± 0.039	2.66 ± 0.034
KNREVVQVSKAGGLPMD [RRP45]	3.04 ± 0.11	2.84 ± 0.097	2.54 ± 0.095	3.28 ± 0.067
DYRVLVDKSRKVAHTSY [PRE8]	2.81 ± 0.12	2.48 ± 0.13	2.3 ± 0.13	2.08 ± 0.095
CQEEVSTIEKDMKEYDS [SMC2]	3.39 ± 0.12	3.51 ± 0.084	3.42 ± 0.081	3.63 ± 0.095
PIYYQKLKHMVLDKMHA [RET1]	1.58 ± 0.076	2.03 ± 0.088	1.62 ± 0.094	1.77 ± 0.063
THNSYEKACQVLKYMLL [RPN6]	2.18 ± 0.076	2.44 ± 0.073	2.23 ± 0.087	3.26 ± 0.071
QQQVLNKLRQQAIAKNN [SNF5]	1.13 ± 0.066	1.2 ± 0.072	1.11 ± 0.13	1.05 ± 0.052
NGGITNTATNALRPSDI [YOR098C/NUP1]	2.63 ± 0.13	2.69 ± 0.14	2.11 ± 0.12	2.84 ± 0.12
IELLSLDDDSIVNHEQD [SRB4]	2.9 ± 0.1	3.19 ± 0.089	3.4 ± 0.083	3.12 ± 0.088
